Assay results published in US20250298034A1, “METHODS OF TREATING IMMUNOTHERAPY-ASSOCIATED ADVERSE EFFECTS” (NORTHWESTERN UNIVERSITY, priority 2022, published 2025).

Test system: human peripheral monocyte differentiated M1 macrophages
Assay: In vitro sMIC induction of PDL1 expression on monocyte-derived macrophages (flow cytometry)
Type: cell-based
Conditions: recombinant sMIC added at day 7, cultured 2 days; FIG. 4E
Procedure: In vitro macrophage generation from peripheral monocytes: Human peripheral blood monocyte differentiation into macrophages. PBMCs from healthy donors were seeded at the density of 2×10^6 cells/well in a 24 well plate with pre-warmed monocyte attachment media (MAM, Promocell, Cat. No. c-28051) and incubate at 37° C. After 1.5 hr incubation, non-adherent cells were removed. Adherent cells were washed three times with pre-warmed MAM before cultured in macrophage differentiation media respectively, the M1 macrophage generating media (Promocell c-28055) or the M2 macrophage generating media (Promocell c-28056). After 5 days of culture, 50% of the media were replaced with fresh media. At day 7, recombinant sMIC (rsMICB, his-tagged, SinoBiologicals Cat. No 10759-H08H) or control vehicle PBS were added to the culture at indicated concentration. The culture was continued for 2 days before being harvested for analyses.

B1: sMIC: recombinant sMIC (rsMICB, his-tagged, SinoBiologicals Cat. No 10759-H08H) (protein, UniProt Q29980 23-383, looked up)
MHC class I …: AEPHSLRYNLMVLSQDGSVQSGFLAEGHLDGQPFLRYDRQKRRAKPQGQWAENVLGAKTWDTETEDLTENGQDLRRTLTHIKDQKGGLHSLQEIRVCEIHEDSSTRGSRHFYYDGELFLSQNLETQESTVPQSSRAQTLAMNVTNFWKEDAMKTKTHYRAMQADCLQKLQRYLKSGVAIRRTVPPMVNVTCSEVSEGNITVTCRASSFYPRNITLTWRQDGVSLSHNTQQWGDVLPDGNGTYQTWVATRIRQGEEQRFTCYMEHSGNHGTHPVPSGKALVLQSQRTDFPYVSAAMPCFVIIIILCVPCCKKKTSAAEGPELVSLQVLDQHPVGTGDHRDAAQLGFQPLMSATGSTGSTEGT
modifications: His-tag
B1 was tested, and the “PDL1 expression on M1 macrophages” value was “can induce PDL1 expression”.
